According to US20160002619A1 (CORNELL UNIVERSITY, published 2016):
Residue numbers refer to the chain shown, from its start. Numbers in names are those of the source.

Key:
[1] = molecular target: T1, ALEXA FLUOR 488-labeled wild type mouse KGA (kidney type glutaminase isoform 1, residues 72-674) (mouse, UniProt D3Z7P3 72-674, ALEXA FLUOR 488 succinimidyl ester covalently attached to a lysine amino group (exact residue not given)); experiment: FRET time course: quenching of 10 nM 488-KGA fluorescence by QSY 9-KGA, then 10-fold excess unlabeled WT-KGA [panel a]
T1 construct: Recombinant; His-tag cleaved with thrombin
T1 sequence: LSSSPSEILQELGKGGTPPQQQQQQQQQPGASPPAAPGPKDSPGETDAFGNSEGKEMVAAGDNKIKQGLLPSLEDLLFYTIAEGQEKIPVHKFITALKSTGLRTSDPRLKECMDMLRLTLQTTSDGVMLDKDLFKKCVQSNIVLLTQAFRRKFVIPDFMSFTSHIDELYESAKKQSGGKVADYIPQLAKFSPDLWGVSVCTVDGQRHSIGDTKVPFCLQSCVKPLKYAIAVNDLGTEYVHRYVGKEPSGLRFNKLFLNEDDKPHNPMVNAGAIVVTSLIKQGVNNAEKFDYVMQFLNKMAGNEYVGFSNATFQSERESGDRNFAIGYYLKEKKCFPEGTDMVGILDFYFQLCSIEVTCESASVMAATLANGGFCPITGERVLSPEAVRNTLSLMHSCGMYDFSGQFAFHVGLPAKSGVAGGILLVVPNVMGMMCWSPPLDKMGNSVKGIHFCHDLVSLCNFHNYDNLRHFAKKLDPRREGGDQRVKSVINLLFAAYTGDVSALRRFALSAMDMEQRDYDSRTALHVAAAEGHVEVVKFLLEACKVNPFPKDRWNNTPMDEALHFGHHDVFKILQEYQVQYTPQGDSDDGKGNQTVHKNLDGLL
Protocol: FIGS. 9A-B illustrate that the alternate splice variant KGA behaves like GAC in a FRET assay. […] After 5 minutes, the appropriate volume of 33.25 μM (for concentrations up to 200 nM labeled protein) or 69.5 μM (for concentrations above 200 nM labeled protein) unlabeled WT-KGA was added to make the final concentration of unlabeled KGA to be ten-times the concentration of labeled KGA.

[2] = molecular target: the molecule itself; experiment: preparative Superdex200 gel filtration, self-association
[3] = molecular target: T2, ALEXA FLUOR 488-labeled wild type mouse GAC (glutaminase C, residues 72-603) (mouse, UniProt D3Z7P3 72-555, ALEXA FLUOR 488 succinimidyl ester covalently attached to a lysine amino group within the glutaminase domain (exact residue not given)); experiment: FRET time course: 200 nM QSY 9-labeled GAC added to 20 nM 488-WT-GAC
T2 construct: Recombinant from pET23a with an N-terminal His-tag and thrombin site; The tag was cleaved with thrombin; The oligomeric state (monomer/dimer/tetramer) depends on concentration
T2 sequence: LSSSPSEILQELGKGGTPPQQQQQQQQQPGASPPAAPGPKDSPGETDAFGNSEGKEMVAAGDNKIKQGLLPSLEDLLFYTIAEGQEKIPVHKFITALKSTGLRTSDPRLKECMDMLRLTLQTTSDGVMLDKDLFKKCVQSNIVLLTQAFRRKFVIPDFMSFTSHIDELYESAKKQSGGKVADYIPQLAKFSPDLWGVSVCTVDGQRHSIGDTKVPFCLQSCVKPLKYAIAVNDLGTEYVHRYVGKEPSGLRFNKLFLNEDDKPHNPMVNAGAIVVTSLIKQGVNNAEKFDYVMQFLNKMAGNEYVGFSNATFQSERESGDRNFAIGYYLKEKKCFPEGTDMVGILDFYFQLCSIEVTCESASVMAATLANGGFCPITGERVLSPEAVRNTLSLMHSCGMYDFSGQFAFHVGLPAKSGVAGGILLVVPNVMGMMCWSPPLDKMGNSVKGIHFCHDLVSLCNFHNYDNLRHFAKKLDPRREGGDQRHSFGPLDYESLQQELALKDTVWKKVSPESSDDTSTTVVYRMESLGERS
Protocol: Upon elution, light scattering data was collected and then used to calculate the molecular weight and polydispersity for the species eluted (right axis). Reference lines for the molecular weights of the monomer, dimer, and tetramer forms of GAC are included at 58 kD, 116 kD, and 230 kD respectively. […] In FIG. 4F, WT GAC and GAC mutants were titrated and added to an assay of 20 mM glutamine in the absence of phosphate to show no concentration dependent activation was observed of purified GAC mutants.
Fluorescence experiments were performed using a Varian Carry Eclipse Fluorometer in the counting mode. Excitation and emission wavelengths were 490 and 520 nm, respectively. Experiments were all prepared as one-mL samples and stirred continuously at 20° C. in 50 mM Tris-Acetate pH 8.5, 0.1 mM ethylenediaminetetraacetic acid (EDTA). […] Both BPTES and 968 were prepared in DMSO, and appropriate dilutions were made so that less than 2% (v/v) DMSO was added to an experimental sample.

[4] = molecular target: T3, ALEXA FLUOR 488-labeled mouse GAC D391K (constitutive dimer mutant) (mouse, UniProt D3Z7P3 72-555, ALEXA FLUOR 488 succinimidyl ester covalently attached to a lysine amino group within the glutaminase domain (exact residue not given)); experiment: FRET: 5 nM 488-D391K-GAC titrated with QSY 9-D391K-GAC, fit to a simple ligand binding equation; monomer-monomer association to a dimer
T3 sequence: T2 sequence with D320K
Text: FIGS. 10A-B illustrate measuring of the monomer-monomer binding affinity. […] In FIG. 10B, FRET values from FIG. 10A were plotted in a sigma plot and fit to non-linear regression simple ligand binding equation (line).

B1: QSY 9-labeled wild type mouse KGA (kidney type glutaminase isoform 1, residues 72-674) (enzyme)
chain: T1 sequence
modifications: QSY 9 succinimidyl ester covalently attached to a lysine amino group (exact residue not given)
notes: Recombinant; His-tag cleaved with thrombin; also called QSY 9-KGA
binding result [1]: binds

B2: unlabeled mouse GAC K316E/D391K/R459E (constitutive monomer mutant) (enzyme)
chain: T2 sequence with K245E, D320K, R388E
notes: also called K316E-D391K-R459E-GAC; monomeric GAC (K316E-D391K-R459E)
concentration dependent activation (glutaminase activity, 20 mM glutamine, no phosphate): no concentration dependent activation was observed of purified GAC mutants
binding result [2]: no binding

B3: QSY 9-labeled mouse GAC K316E/D391K/R459E (constitutive monomer mutant) (enzyme)
chain: T2 sequence with K245E, D320K, R388E
modifications: QSY 9 succinimidyl ester covalently attached to a lysine amino group (exact residue not given)
notes: also called QSY 9-K316E-D391K-R459E; QSY 9-GAC (K316E, D391K, R459E) monomer mutant
binding result [3]: no binding (tested: 200 nM)

B4: QSY 9-labeled mouse GAC D391K (constitutive dimer mutant) (enzyme)
chain: T2 sequence with D320K
modifications: QSY 9 succinimidyl ester covalently attached to a lysine amino group (exact residue not given)
notes: also called QSY 9-D391K-GAC; QSY 9-GAC (D391K) dimer mutant
Kd [4]: 2.5 nM
